Assay results: IntAct's records for PubMed 25203555

B1: Uncharacterized protein C1322.02 (Schizosaccharomyces pombe (strain ATCC 38366 / 972)), O94542 (parent)
chain: MIESKGETAPSLNLNDVNVEENDAAQSFAEKVQRFRYQMKVHAAPRQKTLHSFLKKDNANIHDFTKVEKPHIRSSKSKVSYNSITSRVTKYFEEKNNSVDQLHSESLTPLSFGHTIPKKKPLLMTASVSEDSRVRVSKRQFKSKVVHPEIAISIAKRHKPKFPLSDELMNVEPGFHHSNIGCQITPYLWISSFRTNVYYLIGNEGDLLSQQVPSISGELNMLRGVCTRIDDDNRYDIEQAGSCFGMSVFPTSDSGEESFTTLESDPIVNCEHDEKKVADNLLVPQVMCSSNISTFFRSPGGKKLYHYLWKNSNALRISSNDLLEILLKHGVYVSLDTLHSWLQERNVNFEK
partner: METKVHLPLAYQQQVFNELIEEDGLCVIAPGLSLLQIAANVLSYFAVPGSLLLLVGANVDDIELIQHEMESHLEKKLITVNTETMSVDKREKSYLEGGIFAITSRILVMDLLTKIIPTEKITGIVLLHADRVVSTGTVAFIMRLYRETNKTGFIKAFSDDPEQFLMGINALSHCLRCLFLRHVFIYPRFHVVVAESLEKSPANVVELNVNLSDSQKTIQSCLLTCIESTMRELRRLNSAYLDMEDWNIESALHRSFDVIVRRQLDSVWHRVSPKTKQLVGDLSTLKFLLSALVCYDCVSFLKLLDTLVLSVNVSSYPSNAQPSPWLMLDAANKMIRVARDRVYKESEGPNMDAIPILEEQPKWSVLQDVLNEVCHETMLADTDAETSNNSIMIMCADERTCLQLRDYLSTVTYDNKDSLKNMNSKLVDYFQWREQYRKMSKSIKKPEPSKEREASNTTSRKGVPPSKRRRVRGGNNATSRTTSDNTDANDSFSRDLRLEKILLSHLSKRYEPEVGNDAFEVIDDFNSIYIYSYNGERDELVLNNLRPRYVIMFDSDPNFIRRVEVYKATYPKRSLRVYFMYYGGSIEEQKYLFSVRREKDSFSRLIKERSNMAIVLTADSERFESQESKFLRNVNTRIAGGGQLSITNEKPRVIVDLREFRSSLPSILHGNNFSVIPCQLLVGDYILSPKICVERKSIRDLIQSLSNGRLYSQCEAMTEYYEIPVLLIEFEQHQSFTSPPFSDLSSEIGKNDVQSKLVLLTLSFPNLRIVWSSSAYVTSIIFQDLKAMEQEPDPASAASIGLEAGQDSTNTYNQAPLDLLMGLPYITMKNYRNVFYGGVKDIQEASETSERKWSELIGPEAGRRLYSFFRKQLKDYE
B2: Uncharacterized protein C1322.02 (Schizosaccharomyces pombe (strain ATCC 38366 / 972)), O94542 (parent)
chain: B1 chain
partner: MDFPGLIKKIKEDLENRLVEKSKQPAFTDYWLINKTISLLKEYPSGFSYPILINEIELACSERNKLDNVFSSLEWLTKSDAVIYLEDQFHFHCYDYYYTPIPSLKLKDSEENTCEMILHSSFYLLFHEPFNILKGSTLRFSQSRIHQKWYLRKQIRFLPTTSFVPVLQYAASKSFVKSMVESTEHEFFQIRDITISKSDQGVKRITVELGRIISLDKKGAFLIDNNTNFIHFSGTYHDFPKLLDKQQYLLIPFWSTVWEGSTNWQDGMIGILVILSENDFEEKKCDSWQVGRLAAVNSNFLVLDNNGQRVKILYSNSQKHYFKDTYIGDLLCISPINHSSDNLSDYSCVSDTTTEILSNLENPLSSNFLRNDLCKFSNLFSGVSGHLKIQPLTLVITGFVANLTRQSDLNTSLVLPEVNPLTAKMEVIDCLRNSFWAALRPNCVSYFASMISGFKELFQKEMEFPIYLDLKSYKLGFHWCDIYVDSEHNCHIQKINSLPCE

Variants of: B1
Conditions: with rad16_schpo rad16, P36617

Row | effect of a mutation on the interaction | Variant
1 | disrupting interaction strength | MIESKGETAPSLNLNDVNVEENDAAQSFAEKVQRFRYQMKVHAAPRQKTLHSFLKKDNANIHDFTKVEKPHIRSSKSKVSYNSITSRVTKYFEEKNNSVDQLHSESLTPLSFGHTIPKKKPLLMTASVSEDSRVRVSKRQFKSKVVHPEIAISIDKRHKPKFPLSDELMNVAPGFHHSNIGCQITPYLWISSFRTNVYYLIGNEGDLLSQQVPSISGELNMLRGVCTRIDDDNRYDIEQAGSCFGMSVFPTSDSGEESFTTLESDPIVNCEHDEKKVADNLLVPQVMCSSNISTFFRSPGGKKLYHYLWKNSNALRISSNDLLEILLKHGVYVSLDTLHSWLQERNVNFEK [A155D;E172A]

Variants of: B2
Conditions: with cdc24_schpo cdc24, O75004

Row | effect of a mutation on the interaction | Variant
2 | decreasing interaction strength | MIESKGETAPSLNLNDVNVEENDAAQSFAEKVQRFRYQMKVHAAPRQKTLHSFLKKDNANIHDFTKVEKPHIRSSKSKVSYNSITSRVTKYFEEKNNSVDQLHSESLTPLSFGHTIPKKKPLLMTASVSEDSRVRVSKRQFKSKVVHPEIAISIAKRHKPKFPLSDELMNVEPGFHHSNIGCQITPYLWISSFRTNVYYLIGNEGDLLSQQVPSISGELNMLRGVCTRIDDDNRYDIEQAGSCFGMSVFPTSDSGEESFTTLESDPIVNCEHDEKKVADNLLVPQVMCAANASTAARSPGGKKLYHYLWKNSNALRISSNDLLEILLKHGVYVSLDTLHSWLQERNVNFEK [S289A;S290A;I292A;F295A;F296A]
